{"source": "patent US20230235013A1", "about": "(MABSOLVE, published 2023)", "binders": {"B1": {"name": "anti-CD20 human IgG1 L234Q/L235S/G236R (antibody)", "heavy": "QVQLQQPGAELVKPGASVKMSCKASGYTFTSYNMHWVKQTPGRGLEWIGAIYPGNGDTSYNQKFKGKATLTADKSSSTAYMQLSSLTSEDSAVYYCARSTYYGGDWYFNVWGAGTTVTVSSASTKGPSVFPLAPSSKSTSGGTAALGCLVKDYFPEPVTVSWNSGALTSGVHTFPAVLQSSGLYSLSSVVTVPSSSLGTQTYICNVNHKPSNTKVDKKVEPKSCDKTHTCPPCPAPEQSRGPSVFLFPPKPKDTLMISRTPEVTCVVVDVSHEDPEVKFNWYVDGVEVHNAKTKPREEQYNSTYRVVSVLTVLHQDWLNGKEYKCKVSNKALPAPIEKTISKAKGQPREPQVYTLPPSRDELTKNQVSLTCLVKGFYPSDIAVEWESNGQPENNYKTTPPVLDSDGSFFLYSKLTVDKSRWQQGNVFSCSVMHEALHNHYTQKSLSLSPGK", "light": "QIVLSQSPAILSASPGEKVTMTCRASSSVSYIHWFQQKPGSSPKPWIYATSNLASGVPVRFSGSGSGTSYSLTISRVEAEDAATYYCQQWTSNPPTFGGGTKLEIKRTVAAPSVFIFPPSDEQLKSGTASVVCLLNNFYPREAKVQWKVDNALQSGNSQESVTEQDSKDSTYSLSSTLTLSKADYEKHKVYACEVTHQGLSSPVTKSFNRGEC", "notes": "also called 10.77; copies: 2 + 2"}, "B2": {"name": "anti-CD20 human IgG2 L234Q/L235S (antibody)", "heavy": "QVQLQQPGAELVKPGASVKMSCKASGYTFTSYNMHWVKQTPGRGLEWIGAIYPGNGDTSYNQKFKGKATLTADKSSSTAYMQLSSLTSEDSAVYYCARSTYYGGDWYFNVWGAGTTVTVSSASTKGPSVFPLAPCSRSTSESTAALGCLVKDYFPEPVTVSWNSGALTSGVHTFPAVLQSSGLYSLSSVVTVPSSNFGTQTYTCNVDHKPSNTKVDKTVERKCCVECPPCPAPPQSGPSVFLFPPKPKDTLMISRTPEVTCVVVDVSHEDPEVQFNWYVDGVEVHNAKTKPREEQFNSTFRVVSVLTVVHQDWLNGKEYKCKVSNKGLPAPIEKTISKTKGQPREPQVYTLPPSREEMTKNQVSLTCLVKGFYPSDIAVEWESNGQPENNYKTTPPMLDSDGSFFLYSKLTVDKSRWQQGNVFSCSVMHEALHNHYTQKSLSLSPGK", "light": "B1 light", "notes": "also called 11.144; copies: 2 + 2"}, "B3": {"name": "anti-CD20 human IgG1 L234S/L235V/G236R (antibody)", "heavy": "B1 heavy with Q238S, S239V", "light": "B1 light", "notes": "also called 2-53; copies: 2 + 2"}, "B4": {"name": "anti-CD20 human IgG1 L234Q/L235S/G236R/T250Q/M428L (antibody)", "heavy": "B1 heavy with T254Q, M432L", "light": "B1 light", "notes": "also called 10.146; copies: 2 + 2"}, "B5": {"name": "anti-CD20 human IgG1 L234Q/L235S/G236R/M252Y/S254T/T256E (antibody)", "heavy": "B1 heavy with M256Y, S258T, T260E", "light": "B1 light", "notes": "also called 10.145; copies: 2 + 2"}, "B6": {"name": "anti-CD20 human IgG1 L234A/L235A/P329G (LALAPG reference) (antibody)", "heavy": "not shown", "light": "B1 light", "notes": "also called 2-66; copies: 2 + 2"}}, "note": "Where a chain is given by its changes, count along the chain named. In names and notes the source's numbering stands."}
{"target": "T1, Histidine-tagged recombinant human FcγRI (CD64) (human, UniProt P12314 16-288)", "T1 construct": "bought; also called Sino Biological Cat. No. 12056-H08H", "assay": "SPR, culture supernatant, captured His-FcγRI;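 further: biacore T200 SPR at 25 °C, anti-His capture, supernatants of HEK293 cells expressing IgG1 Fc variants injected 1 min, reference-subtracted response read 55 s after injection start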", "units": {"Mean binding response": "RU"}}
{"binder": "B1", "Mean binding response": 11.9}
{"target": "T1, Histidine-tagged recombinant human …", "assay": "SPR, captured His-receptor"}
{"binder": "B2", "binding result": "binds"}
{"binder": "B3", "binding result": "no binding (tested: 100 µg/mL)"}
{"binder": "B4", "binding result": "no binding (tested: 100 µg/mL)"}
{"binder": "B5", "binding result": "no binding (tested: 100 µg/mL)"}
{"target": "T2, human FcγRIIA (R131, Sino Biological Cat. No. 10374-H08H) (human, UniProt P12318 34-218)", "T2 construct": "bought; also called human FcγRIIa R131 allele; FcγRII allele R131", "T2 sequence (looked up)": "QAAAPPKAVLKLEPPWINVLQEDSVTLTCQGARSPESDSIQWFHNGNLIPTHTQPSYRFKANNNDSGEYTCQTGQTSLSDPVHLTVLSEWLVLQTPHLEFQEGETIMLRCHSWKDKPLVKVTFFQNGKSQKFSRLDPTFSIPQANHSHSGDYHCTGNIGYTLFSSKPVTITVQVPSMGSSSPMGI", "assay": "SPR, captured His-receptor"}
{"binder": "B1", "binding result": "no binding (tested: 100 µg/mL)"}
{"binder": "B2", "binding result": "no binding (tested: 100 µg/mL)"}
{"binder": "B3", "binding result": "no binding (tested: 100 µg/mL)"}
{"binder": "B4", "binding result": "no binding (tested: 100 µg/mL)"}
{"binder": "B6", "binding result": "no binding (tested: 100 µg/mL)"}
{"binder": "B5", "binding result": "no binding (tested: 100 µg/mL)"}
{"target": "T3, human FcγRIIIB (NA2 allotype, Sino Biological Cat. No. 11046-H08H) (human, UniProt O75015 17-200)", "T3 construct": "bought; also called human FcγRIIIb NA2 allele", "assay": "SPR, captured His-receptor"}
{"binder": "B1", "binding result": "no binding (tested: 100 µg/mL)"}
{"binder": "B2", "binding result": "no binding (tested: 100 µg/mL)"}
{"binder": "B3", "binding result": "no binding (tested: 100 µg/mL)"}
{"binder": "B4", "binding result": "no binding (tested: 100 µg/mL)"}
{"binder": "B6", "binding result": "no binding (tested: 100 µg/mL)"}
{"binder": "B5", "binding result": "no binding (tested: 100 µg/mL)"}
